Literature values as cited in PMC4078514, “A Bombesin-Shepherdin Radioconjugate Designed for Combined Extra- and Intracellular Targeting” (Pharmaceuticals, 2014).

Target: Hsp90 (Homo sapiens) (UniProt P07900)

Sequence of Shepherdin 79-83 (O15392 whole entry, looked up, tested part not stated): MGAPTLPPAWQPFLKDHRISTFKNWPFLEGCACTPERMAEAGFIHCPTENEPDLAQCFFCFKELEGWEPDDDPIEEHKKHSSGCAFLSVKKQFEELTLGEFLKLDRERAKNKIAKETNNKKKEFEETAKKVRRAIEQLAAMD

In the case of Shepherdin 79-83 (from UniProt O15392), the Kd is given as 80 nM.
